{
  "source": "patent US20230338526A1",
  "about": "(BIO THERA SOLUTIONS, published 2023)",
  "key": {"CD20 [1]": {"target": "T1, CD20 (human, UniProt P11836 1-297)", "T1 sequence (looked up)": "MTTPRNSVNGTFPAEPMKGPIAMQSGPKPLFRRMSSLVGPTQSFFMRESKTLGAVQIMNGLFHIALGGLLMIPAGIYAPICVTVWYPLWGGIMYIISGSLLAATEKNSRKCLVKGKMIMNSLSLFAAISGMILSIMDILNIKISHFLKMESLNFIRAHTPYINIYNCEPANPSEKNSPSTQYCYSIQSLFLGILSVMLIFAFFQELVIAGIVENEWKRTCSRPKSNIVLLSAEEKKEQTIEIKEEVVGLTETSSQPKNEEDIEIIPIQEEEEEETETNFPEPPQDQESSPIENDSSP", "assay": "cell-based or functional assay"}, "CD20 [2]": {"target": "T1, CD20", "assay": "cell-based or functional assay", "remark": "listed apart in the source"}, "CD20 [3]": {"target": "T1, CD20", "assay": "binding to CD20+ cells; method and cell line not stated"}},
  "data": [
    {"binder": "Rituximab (antibody, V domains shown) VH: QVQLQQPGAELVKPGASVKMSCKASGYTFTSYNMHWVKQTPGRGLEWIGAIYPGNGDTSYNQKFKGKATLTADKSSSTAYMQLSSLTSEDSAVYYCARSTYYGGDWYFNVWGAGTTVTVSA VL: QIVLSQSPAILSASPGEKVTMTCRASSSVSYIHWFQQKPGSSPKPWIYATSNLASGVPVRFSGSGSGTSYSLTISRVEAEDAATYYCQQWTSNPPTFGGGTKLEIK", "values": [
      {"measurement": "ADCC, PBMC method", "setting": "CD20 [1]", "value": 0.0496, "unit": "nM"},
      {"measurement": "ADCC, Reporter gene assay method", "setting": "CD20 [1]", "value": 0.019, "unit": "nM"},
      {"measurement": "Percentage of whole blood B-cell depletion in vitro, 10 ng/ml", "setting": "CD20 [2]", "value": 17.8, "unit": "%"},
      {"measurement": "Percentage of whole blood B-cell depletion in vitro, 50 ng/ml", "setting": "CD20 [2]", "value": 36, "unit": "%"},
      {"measurement": "Binding to CD 20^+ cells", "setting": "CD20 [3]", "value": 10.2, "unit": "nM"}
    ]}
  ]
}
